The numbers were not newly measured in PMC9623233 (Clinical Cancer Research, 2022), which cites them from elsewhere.

Read-outs that look alike come from different tables or passages of the source.

For this data set the following is noted: cited from earlier work.

With “mirvetuximab soravtansine: α-FR–targeted antibody–drug conjugate with maytansine payload”, the Pneumonitis was 9% (combined with bevacizumab) and 2.9% (single agent).
